Test results reported in publication PMC5727057.
“And” between values parts separate entries of the source, which are not always exact repeats. Equal entries are not always repeated. Where two headings read alike, the source gives them in different places.

Tests used:
[1] = target: GmSKRP1 (protein used for isothermal titration calorimetry) (soybean); test: ITC; 40 μM GmSKRP1 in the cell titrated with 400 μM PsAvr3c from the syringe; 25 °C; 20 mM HEPES pH 7.5, 200 mM NaCl; one-site binding model; three independent experiments
[2] = target: GmSKRP1 (protein used for isothermal titration calorimetry) (soybean); test: as above; remark: listed apart in the source

In the case of “PsAvr3c (protein used for isothermal titration calorimetry) (natural protein)”, the Kd [1] is reported as 3.35 µM and the Kd [2] is reported as 3.38 µM and 3.52 µM and 3.14 µM.
